Patent US20150204859, “MULTIPLEXED MICROCOLUMN DEVICES AND PROCESSES FOR SELECTION OF NUCLEIC ACID APTAMERS” (CORNELL UNIVERSITY, published 2015)

Tests used:
GFP = GFP (UniProt P42212); conditions: RNA transcript; printed sequence is the DNA template strand (RNA is its reverse complement); microcolumn qPCR recovery fit by simulation; non-specific background binding
hHSF2 [1] = target: T1, hHSF2 (Homo sapiens, UniProt Q03933 Q03933:1-536); assay: EMSA; confirmed by FP (FIG. 22B); exact value only in figure; conditions: tags: N-terminal GST; E. coli BL21(DE3)-RIPL; label: 3'-fluorescein (5-thiosemicarbazide)
Procedure: (§1) The candidate aptamers were 3′-end labeled with fluorescein 5-thiosemicarbazide (Invitrogen) as described previously (Ref. 16). 50 μL binding reactions were prepared with 2 nM fluorescently-labeled RNA and decreasing amounts of protein (2000 to 0 nM) in binding buffer containing 0.01% IGEPAL CA630, 10 μg/ml tRNA, and 3U of SUPERase•In RNase Inhibitor (Invitrogen). […] The gel was run for 80 minutes at 100 volts in refrigerated 0.5×TBE. Images were acquired using the fluorescein scan settings on a Typhoon 9400 imager (GE Healthcare Life Sciences). The resulting bands were quantified with ImageQuant software and the data was fit to the Hill equation using Igor (Wavemetrics) to estimate the equilibrium dissociation constant (KD).
(§2) The putative RNA aptamers were fluorescently end-labeled and then tested for binding to their hHSF targets using F-EMSA and FP assays (Ref. 16). An image of a typical F-EMSA result is shown in FIG. 17A for hHSF1-R5-1 aptamer binding to hHSF1 protein. […] The F-EMSA results were confirmed by the FP assays (FIGS. 22 and 23). Thus, the observed binding is not due to the affinity tags on the protein targets but rather specific domains of the targets themselves.

GST tag [2] = target: T2, GST tag (UniProt P08515 P08515:1-218); assay: EMSA; no binding to GST tag alone; FP FIG. 22D; conditions: tags: GST tag alone, ~30 kDa; label: 3'-fluorescein (5-thiosemicarbazide)
Procedure: as §1, §2

hHSF1 [3] = target: T3, hHSF1 (Homo sapiens, UniProt Q00613 Q00613:1-529); assay: EMSA; room temperature 2 h, 10 ug/ml tRNA; confirmed by FP (FIG. 22A); exact value only in figure; conditions: tags: N-terminal GST; E. coli BL21(DE3)-RIPL; label: 3'-fluorescein (5-thiosemicarbazide)
Procedure: as §1, §2

hHSF1 [4] = target: T3, hHSF1; assay: EMSA; confirmed by FP (FIG. 23A); exact value only in figure; conditions: tags: N-terminal GST; E. coli BL21(DE3)-RIPL; label: 3'-fluorescein (5-thiosemicarbazide)
Procedure: as §1, §2

GST tag [5] = target: T2, GST tag; assay: EMSA; no binding to GST tag alone; FP FIG. 23D; conditions: tags: GST tag alone, ~30 kDa; label: 3'-fluorescein (5-thiosemicarbazide)
Procedure: as §1, §2

hHSF2 [6] = target: T1, hHSF2; assay: EMSA; room temperature 2 h, 10 ug/ml tRNA; confirmed by FP (FIG. 23B); exact value only in figure; conditions: tags: N-terminal GST; E. coli BL21(DE3)-RIPL; label: 3'-fluorescein (5-thiosemicarbazide)
Procedure: as §1, §2

T1 sequence (Q03933 whole entry, one chain of several): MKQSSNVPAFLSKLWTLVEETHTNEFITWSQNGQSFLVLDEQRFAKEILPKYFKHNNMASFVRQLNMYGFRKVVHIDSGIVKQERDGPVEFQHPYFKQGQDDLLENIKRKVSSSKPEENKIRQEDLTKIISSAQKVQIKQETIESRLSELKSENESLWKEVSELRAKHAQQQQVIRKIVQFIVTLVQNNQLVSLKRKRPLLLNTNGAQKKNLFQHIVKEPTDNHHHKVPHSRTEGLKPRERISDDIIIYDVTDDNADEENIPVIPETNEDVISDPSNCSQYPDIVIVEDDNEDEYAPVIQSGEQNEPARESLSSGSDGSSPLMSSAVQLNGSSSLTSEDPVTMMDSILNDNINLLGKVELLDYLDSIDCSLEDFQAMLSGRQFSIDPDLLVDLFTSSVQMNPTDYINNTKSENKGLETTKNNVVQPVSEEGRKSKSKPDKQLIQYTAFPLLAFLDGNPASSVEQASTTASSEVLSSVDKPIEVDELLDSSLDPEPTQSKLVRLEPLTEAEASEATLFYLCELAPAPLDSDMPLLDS
T3 sequence (Q00613 whole entry, one chain of several): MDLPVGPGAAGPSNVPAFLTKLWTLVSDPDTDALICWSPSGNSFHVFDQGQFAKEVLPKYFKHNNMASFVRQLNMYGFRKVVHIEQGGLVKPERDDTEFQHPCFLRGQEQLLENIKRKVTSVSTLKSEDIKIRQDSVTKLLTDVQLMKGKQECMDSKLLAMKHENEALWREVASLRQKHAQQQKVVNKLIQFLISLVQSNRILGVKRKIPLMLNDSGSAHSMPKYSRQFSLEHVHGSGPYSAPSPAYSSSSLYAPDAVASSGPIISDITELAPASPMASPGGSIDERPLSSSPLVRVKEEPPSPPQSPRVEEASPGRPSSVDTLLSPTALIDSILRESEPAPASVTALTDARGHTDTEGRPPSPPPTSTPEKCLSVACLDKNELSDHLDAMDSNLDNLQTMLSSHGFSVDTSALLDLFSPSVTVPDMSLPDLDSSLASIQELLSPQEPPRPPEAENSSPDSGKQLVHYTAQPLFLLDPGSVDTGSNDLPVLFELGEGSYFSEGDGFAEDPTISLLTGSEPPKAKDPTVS
T2 sequence (P08515 whole entry, one chain of several): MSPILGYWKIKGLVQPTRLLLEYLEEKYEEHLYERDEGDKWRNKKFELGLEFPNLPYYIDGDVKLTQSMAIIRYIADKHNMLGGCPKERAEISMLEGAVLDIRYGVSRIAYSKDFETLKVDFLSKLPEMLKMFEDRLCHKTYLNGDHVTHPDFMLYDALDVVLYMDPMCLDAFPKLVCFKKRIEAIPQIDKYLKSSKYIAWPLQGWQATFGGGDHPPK

## AAGCUUCGUCAAGUCUGCAGUGAANNNNNNNNNNNNNNNNNNNNNNNNNNNNNNNNNNNNNNNNNNNNNNNNNNNNNNNNNNNNNNNNNNNNNNGAAUUCGUAGAUGUGGAUCCAUUCCC [N70 random RNA library]
GFP
  Kd: > 10000 nM

B1: hHSF1-R5-1 (ssRNA)
RNA: GGGAAUGGAUCCACAUCUACGAAUUCAAUCAAGUCCCCAGACUCAGCAACACUGGACAGCGAUAUGCAGAUAACCAAGACCAAUUCACUCCAGUUCACUGCAGACUUGACGAAGCUU
hHSF2 [1]
  Kd: < 20 nM
GST tag [2]
  binding result: no binding
hHSF1 [3]
  Kd: < 20 nM

B2: hHSF2-R5-2 (ssRNA)
RNA: GGGAAUGGAUCCACAUCUACGAAUUCAAUCAAGUCCCCAGACUCAGCAACACUGGACAGCGAUAUGCAGAUAACCAAGACCAAUUCACUCCAGUUCACUGCAGACUUGACGAAGCUU
hHSF1 [4]
  Kd: < 20 nM
GST tag [5]
  binding result: no binding
hHSF2 [6]
  Kd: < 20 nM
